Changes are numbered by the printed parent chain.
T1: human CEACAM6 (human, UniProt P40199 35-320)
T1 construct: whole, on cells; also called CHO-CEACAM6
T1 sequence (looked up): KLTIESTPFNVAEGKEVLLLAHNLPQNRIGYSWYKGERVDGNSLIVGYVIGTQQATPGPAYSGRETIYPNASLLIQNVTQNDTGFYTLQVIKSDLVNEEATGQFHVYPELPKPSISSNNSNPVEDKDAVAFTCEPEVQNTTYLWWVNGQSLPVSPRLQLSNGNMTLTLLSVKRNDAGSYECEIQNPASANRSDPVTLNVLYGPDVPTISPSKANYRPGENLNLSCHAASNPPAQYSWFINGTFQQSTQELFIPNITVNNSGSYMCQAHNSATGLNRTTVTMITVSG

T2: human CEACAM1 (human, UniProt P13688 35-526)
T2 construct: whole, on cells; also called CHO-CEACAM1
T2 sequence (looked up): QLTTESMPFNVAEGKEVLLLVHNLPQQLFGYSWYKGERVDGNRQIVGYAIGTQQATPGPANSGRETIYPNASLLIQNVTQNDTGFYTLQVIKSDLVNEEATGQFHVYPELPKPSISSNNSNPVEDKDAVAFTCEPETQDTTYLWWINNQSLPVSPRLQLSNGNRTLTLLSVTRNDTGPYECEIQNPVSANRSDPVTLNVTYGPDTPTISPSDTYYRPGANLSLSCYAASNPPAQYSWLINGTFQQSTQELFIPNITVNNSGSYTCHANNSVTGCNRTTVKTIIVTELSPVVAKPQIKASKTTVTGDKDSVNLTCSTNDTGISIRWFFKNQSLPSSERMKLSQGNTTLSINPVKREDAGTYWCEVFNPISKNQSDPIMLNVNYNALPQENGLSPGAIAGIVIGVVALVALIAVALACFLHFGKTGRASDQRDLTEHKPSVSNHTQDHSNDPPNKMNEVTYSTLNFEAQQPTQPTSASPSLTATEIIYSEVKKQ

T3: human CEACAM5 (human, UniProt P06731 35-685)
T3 construct: whole, on cells; Target on MKN-45 (DSMZ ACC409) and LS180 (ATCC CL-187) cells; also called carcinoembryonic antigen-related cell adhesion molecule 5; CD66e
T3 sequence (looked up): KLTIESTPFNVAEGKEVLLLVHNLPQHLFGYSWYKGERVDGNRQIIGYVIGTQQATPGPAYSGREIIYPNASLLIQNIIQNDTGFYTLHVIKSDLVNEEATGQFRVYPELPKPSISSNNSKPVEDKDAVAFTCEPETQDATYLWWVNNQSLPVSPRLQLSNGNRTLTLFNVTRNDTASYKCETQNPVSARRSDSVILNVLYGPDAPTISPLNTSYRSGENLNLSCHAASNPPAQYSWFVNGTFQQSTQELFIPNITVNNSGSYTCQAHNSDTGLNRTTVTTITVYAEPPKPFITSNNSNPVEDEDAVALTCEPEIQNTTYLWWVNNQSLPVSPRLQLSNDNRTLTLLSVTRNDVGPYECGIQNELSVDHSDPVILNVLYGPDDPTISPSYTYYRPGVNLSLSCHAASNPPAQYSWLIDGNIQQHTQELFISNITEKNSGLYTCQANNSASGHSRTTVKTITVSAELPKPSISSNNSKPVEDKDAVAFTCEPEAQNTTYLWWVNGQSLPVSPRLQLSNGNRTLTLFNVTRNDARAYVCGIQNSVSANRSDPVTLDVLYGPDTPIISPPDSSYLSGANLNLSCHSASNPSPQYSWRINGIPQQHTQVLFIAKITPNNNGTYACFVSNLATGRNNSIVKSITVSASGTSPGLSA

B1: P1AI5015 (antibody, human IgG1, V domains shown)
VH: EVQLVESGGGLVQPGGSLRLSCAASGFNIKDTYMHWVRQAPGKGLEWVGRIDPANGNSKYADSVKGRFTISADTSKNTAYLQMNSLRAEDTAVYYCAPFGYYVSDYAMAYWGQGTTVTVSS
VL: EIVLTQSPATLSLSPGERATLSCRAGESVDIFGVGFLHWYQQKPGQAPRLLIYRGSNRATGIPARFSGSGSGTDFTLTISSLEPEDFAVYYCQQTYEYPYTFGQGTKLEIK
B2: P1AI5031 (antibody, human IgG1, V domains shown)
VH: B1 VH
VL: B1 VL with A59M, Y96N, Y98D
notes: also called 24_A55M
B3: P1AI5014 (antibody, human IgG1, V domains shown)
VH: B1 VH
VL: B1 VL with Y96N, Y98D
B4: P1AI5018 (antibody, human IgG1, V domains shown)
VH: B1 VH
VL: B1 VL with Y96T
B5: P1AI5016 (antibody, human IgG1, V domains shown)
VH: B1 VH
VL: B1 VL with Y96V
B6: P1AI5017 (antibody, human IgG1, V domains shown)
VH: B1 VH
VL: B1 VL with Y96S

molecular target: T1, human CEACAM6; experiment: FACS on CHO cells overexpressing human CEACAM6
Experimental: (§1) Viability of CHO-CEACAM1 (CHO cells overexpressing human CEACAM1) and CHO-CEACAM6 (CHO cells overexpressing human CEACAM6) cells was checked. Then 100 μl of re-suspended target cells were seeded into a U-bottom plate (100′000 cells/well). The antibodies were diluted in FACS buffer. The plates were centrifuged for 4 min at 400×g and supernatant was removed. Then 25 µl/well of the diluted antibodies were added to the cells. The cells were incubated for 45 min at 4° C. After the incubation, cells were washed twice and 25 μl/well of diluted (1/100 in FACS buffer) PE anti-human Fc secondary antibody (Jackson Immuno Research, #109-116-170) or the directly labeled CD66 antibody (Clone B1.1/CD66, BD Bioscience, #551480) was added to the cells. The cells were incubated for 45 min at 4° C. After the incubation, cells were washed twice. Then cells were re-suspended in 150 μl/well of FACS buffer. Cell binding was measured on the BD LSRFortessa Flow Cytometer, the same day.

Row | Binder | binding result
1 | B1 | no binding
2 | B2 | no binding
3 | B3 | no binding
4 | B4 | no binding
5 | B5 | no binding
6 | B6 | no binding

molecular target: T2, human CEACAM1; experiment: FACS on CHO cells overexpressing human CEACAM1
Experimental: as §1

Row | Binder | binding result
7 | B1 | no binding
8 | B2 | no binding
9 | B3 | no binding
10 | B4 | no binding
11 | B5 | no binding
12 | B6 | no binding

molecular target: T3, human CEACAM5; experiment: FACS on MKN-45 cells expressing human CEACAM5
Experimental: 10 μl of a 1×10⁴ MKN-45 (DSMZ ACC409) cell suspension in assay buffer was seeded in all Wells of a 384 well polypropylene plate (Weidmann #23490-101). Then 10 μl of antibodies diluted in assay buffer (double concentrated), at a start concentration of 100 μg/ml, serially diluted 1:4 were added to the plate. After 90 minutes incubation at 4° C., 60 μl assay buffer was added followed by a centrifuge step (330×g, 5 min) and an aspirating step (BioTek washer 405H) where 60 μl of supernatant were discarded. 20 μl of detection antibody (Alpaca anti rabbit IgG Chromotek #srbAF647-1) diluted in assay buffer (double concentrated) to a final concentration of 0.5 μg/ml was added to all Wells followed by 1 hour incubation time at room temperature. The cells were then subjected to two washing steps with 40 μl and 60 μl assay buffer as described above and then resuspended in 20 μl assay buffer. Cell binding was measured on an iQue Screener Plus high throughput FACS device from Sartorius/Intellicyt.

Row | Binder | EC50
13 | B1 | 0.483 µg/mL
14 | B2 | 2.42 µg/mL
15 | B3 | 1.53 µg/mL
16 | B4 | 0.65 µg/mL
17 | B5 | 0.588 µg/mL
18 | B6 | 0.762 µg/mL
